For two molecules, Kd, koff and kon results are on record in patent publication US20250197499A1 (STEALTH IO, published 2025).

For orientation: Kd means the free concentration of one partner at which half of the binding sites on the other are occupied at equilibrium, for simple one-to-one binding. As usually defined, the koff is the rate constant with which the complex falls apart. As a reminder, the kon is the second-order rate constant of association.

For experiment [1], the target named is T1, Recombinant human PD-L1-His tag (ACROBiosystems, #PD1-H5229) (human, UniProt Q9NZQ7 19-238).
T1 construct: Bought protein; also called sPD-L1; human PD-L1-His tag protein; not shown: His tag
In words: Octet RED96e; PD-L1-His loaded at 10 µg/ml on HIS1K sensor; sample 75,8 nM. How it is done:
(§1) FIG. 3a is a graph of Octet binding studies on sPD-L1. Recombinant human PD-L1-His tag (ACROBiosystems, #PD1-H5229) was loaded to His-sensor (HIS1K (Anti-Penta-His)) at 10 μg/ml and the binding of each construct was evaluated by Octet RED96e.
(§2) FIG. 3c is a graph depicting the KD values of anti-CD28/sPD-1 constructs on human PD-L1-His tag protein by Octet RED96e. The equilibrium dissociation constant (KD) is calculated as the ratio koff/kₒₙ (with koff:dissociation rates, and kₒₙ:association rates).
(§3) Anti-CD28/sPD-1 antibody fusion constructs were assessed for their ability to bind PD-1 ligands, PD-L1 and PD-L2 by Octet RED96e. Recombinant human PD-L1-His tag (ACROBiosystems, #PD1-H5229) or recombinant human PD-L2-His tag (ACROBiosystems, #PD2-H5220) were loaded to His-sensor (HIS1 K (Anti-Penta-His)) at 10 μg/ml. […] FIG. 3c is a summary of affinity (measured as Kd, M) for each construct on human PD-L1. […] FIG. 4c is a summary of affinity (measured as Kd, M) for each construct on human PD-L2.
For orientation: BLI is a label-free optical method that tracks binding on a fibre tip over time.

For experiment [2], the target named is T2, Recombinant human PD-L2-His tag (ACROBiosystems, #PD2-H5220) (human, UniProt Q9BQ51 20-219).
T2 construct: Bought protein; also called sPD-L2; human PD-L2-His tag protein; not shown: His tag
T2 sequence (looked up): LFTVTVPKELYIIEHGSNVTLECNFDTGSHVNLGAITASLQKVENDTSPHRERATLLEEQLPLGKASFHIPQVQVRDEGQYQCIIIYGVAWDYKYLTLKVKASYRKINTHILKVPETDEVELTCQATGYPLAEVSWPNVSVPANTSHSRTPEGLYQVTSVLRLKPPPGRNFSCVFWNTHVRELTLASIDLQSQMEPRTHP
In words: Octet RED96e; PD-L2-His loaded at 10 µg/ml on HIS1K sensor; sample 75,8 nM. Here is the method: (§4) FIG. 4a is a graph of Octet binding studies on sPD-L2. Recombinant human PD-L2-His tag (ACROBiosystems, #PD2-H5220) was loaded to His-sensor (HIS1 K (Anti-Penta-His)) at 10 μg/ml and the binding of each construct was evaluated by Octet RED96e.
(§5) FIG. 4c is a graph depicting the KD values of anti-CD28/sPD-1 constructs on human PD-L2-His tag protein by Octet RED96e. The equilibrium dissociation constant (KD) is calculated as the ratio koff/kₒₙ (with koff:dissociation rates, and kₒₙ:association rates).
as §3

The target in experiment [3] is T1, Recombinant human PD-L1-His tag …. In words: Octet RED96e; PD-L1-His loaded at 10 µg/ml on HIS1K sensor; sample 378,8 nM. How it is done: as §1, §2, §3
The target in experiment [4] is T2, Recombinant human PD-L2-His tag …. In words: Octet RED96e; PD-L2-His loaded at 10 µg/ml on HIS1K sensor; sample 378,8 nM. Here is the method: as §4, §5, §3

B1: monovalent anti-CD28/sPD-1 wt (bispecific antibody)
light: DIELTQSPASLAVSLGQRATISCRASESVEYYVTSLMQWYQQKPGQPPKLLIFAASNVESGVPARFSGSGSGTNFSLNIHPVDEDDVAMYFCQQSRKVPYTFGGGTKLEIKRTVAAPSVFIFPPSDEQLKSGTASVVCLLNNFYPREAKVQWKVDNALQSGNSQESVTEQDSKDSTYSLSSTLTLSKADYEKHKVYACEVTHQGLSSPVTKSFNRGEC
heavy: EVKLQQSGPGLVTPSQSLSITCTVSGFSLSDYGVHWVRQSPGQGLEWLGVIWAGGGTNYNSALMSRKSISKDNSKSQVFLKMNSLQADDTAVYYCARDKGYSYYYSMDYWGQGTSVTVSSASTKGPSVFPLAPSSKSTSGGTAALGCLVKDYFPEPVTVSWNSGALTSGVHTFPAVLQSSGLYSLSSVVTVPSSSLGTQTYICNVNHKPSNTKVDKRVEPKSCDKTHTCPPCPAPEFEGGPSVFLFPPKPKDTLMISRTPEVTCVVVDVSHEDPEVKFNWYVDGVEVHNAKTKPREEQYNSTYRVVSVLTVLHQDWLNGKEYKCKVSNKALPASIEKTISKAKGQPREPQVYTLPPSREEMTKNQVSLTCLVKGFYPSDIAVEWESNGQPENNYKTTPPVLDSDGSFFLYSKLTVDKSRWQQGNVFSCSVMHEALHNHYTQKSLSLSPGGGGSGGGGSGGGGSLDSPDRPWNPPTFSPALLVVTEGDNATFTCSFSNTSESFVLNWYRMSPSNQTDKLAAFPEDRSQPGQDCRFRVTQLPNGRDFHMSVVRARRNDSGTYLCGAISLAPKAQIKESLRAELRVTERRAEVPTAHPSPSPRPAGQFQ
chain: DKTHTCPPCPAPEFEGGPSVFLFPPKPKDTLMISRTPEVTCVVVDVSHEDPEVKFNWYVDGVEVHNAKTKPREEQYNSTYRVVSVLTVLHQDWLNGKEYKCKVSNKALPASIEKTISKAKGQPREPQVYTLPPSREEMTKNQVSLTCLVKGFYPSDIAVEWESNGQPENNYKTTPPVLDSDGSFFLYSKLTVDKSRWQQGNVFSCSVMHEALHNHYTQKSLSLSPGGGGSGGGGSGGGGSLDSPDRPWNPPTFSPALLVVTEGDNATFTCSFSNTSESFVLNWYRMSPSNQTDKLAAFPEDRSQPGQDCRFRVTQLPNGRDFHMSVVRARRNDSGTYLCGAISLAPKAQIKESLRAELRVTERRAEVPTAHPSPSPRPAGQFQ
notes: also called Monovalent anti-CD28/sPD-1 Wild type structure; bispecific protein complex A:B-C-X:C'-Y
Regarding B1, the Kd in experiment [1] came to 23.3 nM; in experiment [2], 10 nM; in experiment [3] it was 35.1 nM; in experiment [4], 23.7 nM. Further, the koff turned out to be 0.013 s⁻¹ in experiment [1], 0.00283 s⁻¹ in experiment [2], 0.0122 s⁻¹ in experiment [3] and 0.00318 s⁻¹ in experiment [4]. Further, the kon came to 559000 M⁻¹ s⁻¹ in experiment [1], 282000 M⁻¹ s⁻¹ in experiment [2], 348000 M⁻¹ s⁻¹ in experiment [3] and 134000 M⁻¹ s⁻¹ in experiment [4].

B2: monovalent anti-CD28/sPD-1 mut (bispecific antibody)
light: DIELTQSPASLAVSLGQRATISCRASESVEYYVTSLMQWYQQKPGQPPKLLIFAASNVESGVPARFSGSGSGTNFSLNIHPVDEDDVAMYFCQQSRKVPYTFGGGTKLEIKRTVAAPSVFIFPPSDEQLKSGTASVVCLLNNFYPREAKVQWKVDNALQSGNSQESVTEQDSKDSTYSLSSTLTLSKADYEKHKVYACEVTHQGLSSPVTKSFNRGEC
heavy: EVKLQQSGPGLVTPSQSLSITCTVSGFSLSDYGVHWVRQSPGQGLEWLGVIWAGGGTNYNSALMSRKSISKDNSKSQVFLKMNSLQADDTAVYYCARDKGYSYYYSMDYWGQGTSVTVSSASTKGPSVFPLAPSSKSTSGGTAALGCLVKDYFPEPVTVSWNSGALTSGVHTFPAVLQSSGLYSLSSVVTVPSSSLGTQTYICNVNHKPSNTKVDKRVEPKSCDKTHTCPPCPAPEFEGGPSVFLFPPKPKDTLMISRTPEVTCVVVDVSHEDPEVKFNWYVDGVEVHNAKTKPREEQYNSTYRVVSVLTVLHQDWLNGKEYKCKVSNKALPASIEKTISKAKGQPREPQVYTLPPSREEMTKNQVSLTCLVKGFYPSDIAVEWESNGQPENNYKTTPPVLDSDGSFFLYSKLTVDKSRWQQGNVFSCSVMHEALHNHYTQKSLSLSPGGGGSGGGGSGGGGSLDSPDRPWNPPTFSPALLVVTEGDNATFTCSFSNTSESFVLNWYRMSPSNQTDKLAAFPEDRSQPGQDCRFRVTQLPNGRDFHMSVVRARRNDSGTYLCSAISLAPYIQIKESLRAELRVTERRAEVPTAHPSPSPRPAGQFQ
chain: DKTHTCPPCPAPEFEGGPSVFLFPPKPKDTLMISRTPEVTCVVVDVSHEDPEVKFNWYVDGVEVHNAKTKPREEQYNSTYRVVSVLTVLHQDWLNGKEYKCKVSNKALPASIEKTISKAKGQPREPQVYTLPPSREEMTKNQVSLTCLVKGFYPSDIAVEWESNGQPENNYKTTPPVLDSDGSFFLYSKLTVDKSRWQQGNVFSCSVMHEALHNHYTQKSLSLSPGGGGSGGGGSGGGGSLDSPDRPWNPPTFSPALLVVTEGDNATFTCSFSNTSESFVLNWYRMSPSNQTDKLAAFPEDRSQPGQDCRFRVTQLPNGRDFHMSVVRARRNDSGTYLCSAISLAPYIQIKESLRAELRVTERRAEVPTAHPSPSPRPAGQFQ
notes: The sPD-1 fragments carry G124S, K131Y and A132I (numbering of full-length human PD-1); also called Mono Mut; Monovalent anti-CD28/sPD-1 Mutated structure
With B2, the Kd in experiment [1] was determined as 1.57 nM; in experiment [2], 1.05 nM; in experiment [3], 2.17 nM; in experiment [4], 1.33 nM. Besides, the koff in experiment [1] was determined as 0.00083 s⁻¹; in experiment [2], 0.000342 s⁻¹; in experiment [3], 0.00061 s⁻¹; in experiment [4], 0.000183 s⁻¹. Besides, the kon came to 528000 M⁻¹ s⁻¹ in experiment [1], 324000 M⁻¹ s⁻¹ in experiment [2], 281000 M⁻¹ s⁻¹ in experiment [3] and 138000 M⁻¹ s⁻¹ in experiment [4].
